From US20190309044A1, “POLYPEPTIDES AND USES THEREOF AS A DRUG FOR TREATMENT OF AUTOIMMUNE DISORDERS” (Compugen Ltd., priority 2017, published 2019)

Experiments:
Assay type in all cases: in vivo, mouse
[1] = test system: total splenocytes; test: Ex vivo recall responses of splenocytes, HY bone marrow transplantation model
Method: On week 8 post bone marrow cell transplantion, total splenocytes (5×10^5 cells/well) were cultured in the presence of medium alone (no stimulation), anti-CD3(1 ug/ml), DBY peptide (10 ug/ml), irradiated male splenocytes (5×10^5 cells/well), or irradiated female splenocytes (5×10^5 cells/well). The individual splenocyte samples were cultured separately in triplicate wells. For T cell proliferative response, the cultures were pulsed with 1 uCi of tritiated thymidine at 24 hours and harvested at 72 hours post culture initiation. The statistical analysis carried out on the data is one-way ANOVA followed by Dunnett's post test as compared to the mice receiving male CD45.1+ bone marrow cells plus Control Ig treatment, p-values *<0.05, **<0.01,***<0.001, and #<0.0001.
On week 8 post bone marrow cell transplant, total splenocytes (5×10^5 cells/well) were cultured in the presence of medium alone (no stimulation), anti-CD3 (1 ug/ml), DBY peptide (10 ug/ml), irradiated male splenocytes (5×10^5 cells/well), or irradiated female splenocytes (5×10^5 cells/well). The individual splenocyte samples were cultured separately in triplicate wells. For the cytokine cultures, the supernatants were collected at 72 hours post culture initiation and the level of secreted cytokine was determined via LiquiChip. […]
These same populations of cells were analyzed at week 8 within the spleen. […]

[2] = test system: SJL/J mice; test: PLP139-151/CFA R-EAE upon IL-10 or TGFb blockade, clinical score
Method: SJL/J mice were purchased from Harlan and primed with PLP139-151/CFA per the standard protocol, as described in 21.1.2 Methods, above). At disease remission the mice were split into 6 different treatment groups (n=5) as follows:
Mice were treated with Control Ig (mouse IgG2a) or C1ORF32 ECD-Fc (SEQ ID NO:42) at 100 ug/dose, each via an i.p. injection. This was followed with a second i.p. injection on the same day of either anti-IL-10 (rat IgG1), rat IgG1 (control Ab), or anti-TGFβ (mouse IgG1) at 100 ug/dose, each. All treatments were given 3×/wk for 2 wks, beginning on day +20 (onset of disease remission) and until day +31 post disease induction. All mice were followed for disease scores until day 44 post disease induction. On day 44, mice were sacrificed and analyzed for total T cell and Treg cell numbers in spleen and CNS. […]
Mice were followed for disease and scored on a 0-5 scale per standard lab protocol as follows: 0, no abnormality; 1, limp tail; 2, limp tail and hind limb weakness; 3, hind limb paralysis; 4, hind limb paralysis and forelimb weakness; and 5, moribund. Dead mice were scored with a score of 5 on the day of death only, and were not further scored on the next days.

[3] = test system: male DBA/1OlaHsd mice; test: CIA, early stage treatment from day 18; conditions: 3.3 mg/kg
From the text: The aim of this study was to estimate the effect of C1ORF32-P8-V1-ECD-mFc (SEQ ID NO:42) on disease development in a type II Collagen induced arthritis (CIA) mouse model upon administration at early stage of disease; i.e., when specific and predictive markers for RA development are present in the serum, but before onset of clinical symptoms.
In the CIA model, arthritis is induced by immunization with type II collagen in CFA on day 1 which is followed by boosting with type II collagen in CFA on day 21. Antibodies against both CII and cyclic citrullinated peptide (CCPs) appear early after immunization, before joint swelling is observed.
To evaluate the effect of early stage treatment with C1ORF32-P8-V1-ECD-mFc (SEQ ID NO:42) on disease development treatment started on day 18 and was given IP injection, Q2D to mice from day 18 until day 32.
Male DBA/101aHsd mice weighing 16-25 grams (mean 22 g) on day 18 of the study were obtained from Harlan, Inc., Indianapolis, Ind. Mice (10/group) were anaesthetized with Isoflurane, shaved at the base of the tail, and injected intradermally with 150 μl of Freund's Complete Adjuvant (Sigma) containing bovine type II collagen (Elastin Products, Owensville, Mo.) (2 mg/ml) at the base of the tail on day 0 and again on day 21. On study day 18, mice were randomized by body weight into treatment groups. […]

B1: C1ORF32 ECD-Fc (SEQ ID NO:42): human-mouse fusion protein: human C1ORF32 ECD fused to mouse immunoglobulin Fc (SEQ ID NO:42) (protein)
chain: LQVTVPDKKKVAMLFQPTVLRCHFSTSSHQPAVVQWKFKSYCQDRMGESLGMSSTRAQSLSKRNLEWDPYLDCLDSRRTVRVVASKQGSTVTLGDFYRGREITIVHDADLQIGKLMWGDSGLYYCIITTPDDLEGKNEDSVELLVLGRTGLLADLLPSFAVEIMGSENLYFQGSGEPRGPTIKPCPPCKCPAPNLLGGPSVFIFPPKIKDVLMISLSPIVTCVVVDVSEDDPDVQISWFVNNVEVHTAQTQTHREDYNSTLRVVSALPIQHQDWMSGKEFKCKVNNKDLPAPIERTISKPKGSVRAPQVYVLPPPEEEMTKKQVTLTCMVTDFMPEDIYVEWTNNGKTELNYKNTEPVLDSDGSYFMYSKLRVEKKNWVERNSYSCSVVHEGLHNHHTTKSFSRTPGK
modifications: Fusion protein human C1ORF32-ECD fused to mouse IgG2a Fc
IL-10 and IL-4 ([1]; activation with irradiated male splenocytes): increased level | IL-10 and IL-4 secretion ([1]; week 8 splenocytes, in response to male or female splenocytes): significantly increased | beneficial effect on disease ([2]; concomitant administration of anti-IL-10): abrogated the beneficial effect | beneficial effect on disease ([2]; concomitant administration of anti-TGF): abrogated the beneficial effect | effect of lower dose [3]: No effect
